# Legend:
# [1] = In-vivo stability in blood (radio-HPLC of plasma, % intact peptide); design: species or system humans; conditions: for Stability (% of initial signal): in-vivo, plasma radio-HPLC
# Protocol: (§1) Patients were allowed a light breakfast at the day of each infusion. […] Entresto® was given at an oral dose of 100 mg, containing 48.6 mg sacubitril and 51.4 mg valsartan 2 h before the start of one of the two infusions. Vital signs were recorded, and a 12-lead electrocardiogram was obtained before and after each injection. Adverse events were recorded and graded according to Common Terminology Criteria for Adverse Events (CTCAE) version 4.03.
# Blood samples were collected in polypropylene tubes containing ethylenediaminetetraacetic acid at 5, 15, 30 and 60 min after administration of ^177Lu-PP-F11N. The tubes were placed on ice. Plasma was separated by centrifugation (4000 g for 10 min) and protein precipitation followed using cold methanol (v/v 1/2). The mixture was stirred to favor precipitation of proteins and then centrifuged at 4000 g for 10 min. The supernatant was collected and filtered through a […] filter (Millex®-GV, Merck Millipore, Bedford, MA, USA). The clear solution was diluted with H2O (1:1) and then analyzed by radio-high performance liquid chromatography (HPLC) to determine the percentage of intact peptide over time. HPLCs were performed on the Agilent 1260 infinity instrument (Agilent, Santa Clara, United States) connected to a GABI radioactivity-HPLC-flow-monitor γ-spectrometer (Elysia-raytest, Straubenhardt, Germany).
# Bone marrow dosimetry = type: in vivo, humans; conditions: for Bone marrow dose: median
# Protocol: Bone marrow and kidney dosimetry was performed as described before.
# [2] = Acute toxicity, adverse events graded by CTCAE version 4.03; type: in vivo, humans; conditions: all patients, with and without Entresto premedication
# Protocol: as §1
# Dosimetry of stomach = type: in vivo, humans; conditions: for Stomach dose: gastric wall
# Protocol: Planar whole-body scintigraphy and quantitative SPECT/CT acquisitions of neck/thorax/abdomen/pelvis were acquired with a hybrid SPECT/CT system (Siemens Intevo, Siemens Erlangen, Germany) at 1, 4, 24 and 72 h post injection (p.i.).
# A conservative segmentation approach was adopted for gastric dosimetry to ensure that the VOI included all activity distributed in the gastric wall. TACs were analyzed in the same way as for the tumor dosimetry with a mono-exponential model. The average absorbed dose D in the gastric wall was then calculated by using D=N·E/m , where N is the total number of disintegrations, E the average energy deposited in tissue and m = 0.15 kg is the mass of the stomach wall.
# [3] = Entresto premedication, eight patients
smiles,measurement,setting,value
"CSCC[C@H](NC(=O)[C@H](Cc1c[nH]c2ccccc12)NC(=O)CNC(=O)[C@H](Cc1ccc(O)cc1)NC(=O)[C@H](C)NC(=O)[C@@H](CCC(=O)O)NC(=O)[C@@H](CCC(=O)O)NC(=O)[C@@H](CCC(=O)O)NC(=O)[C@@H](CCC(=O)O)NC(=O)[C@@H](CCC(=O)O)NC(=O)[C@@H](CCC(=O)O)NC(=O)CN1CCN(CC(=O)O)CCN(CC(=O)O)CCN(CC(=O)O)CC1)C(=O)N[C@@H](CC(=O)O)C(=O)N[C@@H](Cc1ccccc1)C(N)=O [[^177Lu]Lu-PP-F11N, [^177Lu]Lu-DOTA-(DGlu)6-Ala-Tyr-Gly-Trp-Met-Asp-Phe-NH2, metal not drawn]",Median stability with Entresto premedication compared to without,[1]; 5 min p.i.,1.1 fold
same,Median stability with Entresto premedication compared to without,[1]; 15 min p.i.,1.1 fold
same,Median stability with Entresto premedication compared to without,[1]; 30 min p.i.,1.2 fold
same,Median stability with Entresto premedication compared to without,[1]; 60 min p.i.,1.6 fold
same,Stability (% of initial signal),"[1]; 5 min p.i., with Entresto premedication (100 mg oral, 2 h before), median of patients",99.5%
same,Stability (% of initial signal),"[1]; 5 min p.i., without Entresto premedication, median of patients",94.1%
same,Stability (% of initial signal),"[1]; 15 min p.i., with Entresto premedication (100 mg oral, 2 h before), median of patients",92.1%
same,Stability (% of initial signal),"[1]; 15 min p.i., without Entresto premedication, median of patients",80.3%
same,Stability (% of initial signal),"[1]; 15 min p.i., without Entresto premedication, patient 1",69.9%
same,Stability (% of initial signal),"[1]; 15 min p.i., without Entresto premedication, patient 2",80.3%
same,Stability (% of initial signal),"[1]; 15 min p.i., without Entresto premedication, patient 3",91.4%
same,Stability (% of initial signal),"[1]; 15 min p.i., without Entresto premedication, patient 4",90.5%
same,Stability (% of initial signal),"[1]; 15 min p.i., without Entresto premedication, patient 5",88.8%
same,Stability (% of initial signal),"[1]; 15 min p.i., without Entresto premedication, patient 6",90.2%
same,Stability (% of initial signal),"[1]; 15 min p.i., without Entresto premedication, patient 7",71.4%
same,Stability (% of initial signal),"[1]; 15 min p.i., without Entresto premedication, patient 8",68.1%
same,Stability (% of initial signal),"[1]; 30 min p.i., with Entresto premedication (100 mg oral, 2 h before), median of patients",78.5%
same,Stability (% of initial signal),"[1]; 30 min p.i., with Entresto premedication (100 mg oral, 2 h before), patient 1",78.5%
same,Stability (% of initial signal),"[1]; 30 min p.i., with Entresto premedication (100 mg oral, 2 h before), patient 2",85.7%
same,Stability (% of initial signal),"[1]; 30 min p.i., with Entresto premedication (100 mg oral, 2 h before), patient 3",80.6%
same,Stability (% of initial signal),"[1]; 30 min p.i., with Entresto premedication (100 mg oral, 2 h before), patient 5",85.5%
same,Stability (% of initial signal),"[1]; 30 min p.i., with Entresto premedication (100 mg oral, 2 h before), patient 6",77.9%
same,Stability (% of initial signal),"[1]; 30 min p.i., with Entresto premedication (100 mg oral, 2 h before), patient 7",75.3%
same,Stability (% of initial signal),"[1]; 30 min p.i., with Entresto premedication (100 mg oral, 2 h before), patient 8",79.9%
same,Stability (% of initial signal),"[1]; 30 min p.i., without Entresto premedication, median of patients",64.5%
same,Stability (% of initial signal),"[1]; 30 min p.i., without Entresto premedication, patient 1",64.5%
same,Stability (% of initial signal),"[1]; 30 min p.i., without Entresto premedication, patient 2",72.3%
same,Stability (% of initial signal),"[1]; 30 min p.i., without Entresto premedication, patient 3",74.8%
same,Stability (% of initial signal),"[1]; 30 min p.i., without Entresto premedication, patient 4",67.6%
same,Stability (% of initial signal),"[1]; 30 min p.i., without Entresto premedication, patient 6",60.3%
same,Stability (% of initial signal),"[1]; 30 min p.i., without Entresto premedication, patient 7",50.1%
same,Stability (% of initial signal),"[1]; 60 min p.i., with Entresto premedication (100 mg oral, 2 h before), median of patients",64.15%
same,Stability (% of initial signal),"[1]; 60 min p.i., without Entresto premedication, median of patients",41.1%
same,Median absorbed dose of bone marrow after premedication compared to without,Bone marrow dosimetry; [3],1.4 fold
same,Bone marrow dose,Bone marrow dosimetry; with Entresto premedication,0.05 Gy/GBq
same,Bone marrow dose,Bone marrow dosimetry; without Entresto premedication,0.03 Gy/GBq
same,Serious adverse events,[2],No serious adverse event
same,Median absorbed dose of stomach after premedication compared to without,Dosimetry of stomach; [3],2.1 fold
same,Stomach dose,"Dosimetry of stomach; with Entresto premedication, median",0.5 Gy/GBq
same,Stomach dose,"Dosimetry of stomach; without Entresto premedication, median",0.2 Gy/GBq
same,Stomach dose,"Dosimetry of stomach; without Entresto premedication, patient 4",0.23 Gy/GBq
same,Stomach dose,"Dosimetry of stomach; without Entresto premedication, patient 7",0.17 Gy/GBq

# Source: PMC10998826 (EJNMMI Research, 2024)
